{"source": "the nanobody polyreactivity screen of Harvey et al. (2022)"}
{"assay": "yeast display, Sf9 membrane polyspecificity reagent, FACS + sequencing; frameworks hold sequencing errors", "method_in_brief": "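Using colony PCR, genes from sorted yeast display clones were amplified, then sequenced on MiSeq at 2 × 250 and filtered by CDR length. The clones had been stained with 10% biotinylated, detergent-solubilized Sf9 membrane reagent for 1 hour at 4 °C and sorted by FACS into low and high (top ~1%) gates on anti-HA and streptavidin fluorescence. Polyreactivity labels come from the gate of origin.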"}
{"sequence": "QVQLVESGGGLVQAGGSLRLRCAASGSTFGYNAMGWYRQAPGKESELVAAISSSGGTTYYADSVKARFTISRDNAKNTVYLQMNSLKPEDTAVYYCAADHTVGRYEFEFWGQGTQVTVSS", "polyreactivity (PSR sort gate)": "low polyreactivity"}
{"sequence": "QVQLVESGGGLVQAGGSLRLRCAASGSTFNRYAMGWYRQAPWKERELVAAINWRGGRTYYADSVKGRFTISRDNAKNTVYLQMNSLKPEDTAVYYCNADVTSLTRVHGRFIVSDDDYWGQGTQVTVSS", "polyreactivity (PSR sort gate)": "low polyreactivity"}
{"sequence": "QVQLVESGGGLVQAGGSLRLRCAASGSTIRCYAMGWYRQAPGKERELVAAIRRGGSTYYADSVKGRFTISRDNAKNTVYLQKNSLKPEVTAVYYCAAEPGYYSRQDYRVYRLYYWGQGTQVTVSS", "polyreactivity (PSR sort gate)": "high polyreactivity"}
{"sequence": "QVQLVESGGGLVQAGGSLRLRCAASGSTYTVYAMGWYRQAPRKDRELVAAIRDGSSTNYADSVKGRFTISRDNAKNTVYLQRNSLKPEDTAVYYCNAPYPPTGYGDDDYWGQGTQVTVSA", "polyreactivity (PSR sort gate)": "low polyreactivity"}
{"sequence": "QVQLVESGGGLVQAGGSLRLRCAASGYIIKYNAMGWYRQAPGKERELVAAISSIGGRTYYADSVKGRFTISRDNAKNTVYLQMNSLKPEDTAVYYCNAVGGRYTGWRYDYWGQGPQVTVSS", "polyreactivity (PSR sort gate)": "high polyreactivity"}
{"sequence": "QVQLVESGGGLVQAGGSLRLRCASSGSIFYWYAMGWYRQAPGKERELVAAISRSGGSTYYADSVKGRFTISRDNAKNTVYLQMNSLKPEDTAVYYCATELSYRHGYWGQGTQVTVSS", "polyreactivity (PSR sort gate)": "high polyreactivity"}
{"sequence": "QVQLVESGGGLVQAGGSLRLRCDASGRTFFKNAMGWYRQAPGKERELVAAITSTGGRTYYADSVKGRFPISRDTAKNNVYVEMNSLKPEDTAVYYCAASNFYSGYYYWRQGTQVTVSS", "polyreactivity (PSR sort gate)": "high polyreactivity"}
{"sequence": "QVQLVESGGGLVQAGGSLRLRCGASGFIFDQYAMGWYRQAPGKERELVAAITYSGGGTYYADSVKGRFTISRDNAKNTVYLQMNSLKPEDTAVYYCADLFGYSLYDAQYDYWGQGTQVTVSS", "polyreactivity (PSR sort gate)": "low polyreactivity"}
{"sequence": "QVQLVESGGGLVQAGGSLRLRFAASGSIFVRNALGWYRQAPGKERELVAAITYSGSRTYSADSVKGRFTISRDNAKNTVYLQMNSLKPEETAVYYCAKVRVLVDKWSTFYEYYYWGQGTQVTVSS", "polyreactivity (PSR sort gate)": "low polyreactivity"}
{"sequence": "QVQLVESGGGLVQAGGSLRLRSAASGFTFHRYAMGWSRQAPGKERELVAGITRRSGSTFYADSVKGRFTISRDNAKNTVYLQMNSLKPEDTAVYYCAATVPGLHWIYDYWGQGTQVTVSS", "polyreactivity (PSR sort gate)": "high polyreactivity"}
{"sequence": "QVQLVESGGGLVQAGGSLRLSCAAAGRIFVGYAMGWYRQAPGKERELVAGISRSGYSTYYADSVKGRFTISRDNAKNTVYLQMNSLKPEDTAVYYCAASWYKNPTRYYYWGQGTQVTVSS", "polyreactivity (PSR sort gate)": "high polyreactivity"}
{"sequence": "QVQLVESGGGLVQAGGSLRLSCAAAGRTFYPYVMGWYRQAPGKERELVATISWSGGSTYYADSVKGRFTISRDNAKNSVYLQMNSLKPEDTAVYYCAALWPYGYWGQGTQVTVSS", "polyreactivity (PSR sort gate)": "low polyreactivity"}
{"sequence": "QVQLVESGGGLVQAGGSLRLSCAAAGSIFYYKTMGWYRQAPGKEREMVAAISWSGGSTSYADSVKGRFTISRDNAKNTVYLQMNSLKPEDTAVYYCNVDYGVHVTARDYWGQGTQVTVSS", "polyreactivity (PSR sort gate)": "low polyreactivity"}
{"sequence": "QVQLVESGGGLVQAGGSLRLSCAAAGSIVWFYAMGWYRQAPGKERELFASISSSGGSTYYADSVKGRFTISRDKAKNPGNIQMNTLKPEYTAVYYCAKRTNWGYWYNSWGQGTQVTVSS", "polyreactivity (PSR sort gate)": "high polyreactivity"}
{"sequence": "QVQLVESGGGLVQAGGSLRLSCAACGFTFLRYVMGWYRQAPGKERELVAAISYSGGRTYYADSVKGRFTISRDNAKNTVYLQMNSLKPEDTAVYYCAAARPVGYPPVLKYAYWGQGTQVTVSS", "polyreactivity (PSR sort gate)": "high polyreactivity"}
{"sequence": "QVQLVESGGGLVQAGGSLRLSCAACGGTFRSNAMGWYRQAPGKERELVAASTNYADSVKGRFTISRDNAKNTVYLQMNSLKPEDTAVYYCAAGPTDSQTGMDYWGQGTQVTVSS", "polyreactivity (PSR sort gate)": "low polyreactivity"}
{"sequence": "QVQLVESGGGLVQAGGSLRLSCAACGIIFSWYAMGWYRQAPGKERELVAAISSSGGTTFYADSVKGRFTISRDKAKNTVYLQMNSLKPEDTAVYYCAVVGPPYYTWRVWRPAYDYWGQGTQVTVSS", "polyreactivity (PSR sort gate)": "high polyreactivity"}
{"sequence": "QVQLVESGGGLVQAGGSLRLSCAACGIPLRLNAIGWYRQAPGKERELVARITWRGSTYYADSVKGRFTISRDNAKNTVYLQMNSLKPEDTAVYYCAADNRSWQPPTILPPGASDYWGQGTQVTVSS", "polyreactivity (PSR sort gate)": "low polyreactivity"}
{"sequence": "QVQLVESGGGLVQAGGSLRLSCAACGITFTSNAMGWYRQAPGKERELVASISWSDDNTHYADSVKGRFTISRDNAKYTVYLQMNSLKPEDTAVYYCAADGTHPRPGTYKFDYWGQGTQVTVSS", "polyreactivity (PSR sort gate)": "low polyreactivity"}
{"sequence": "QVQLVESGGGLVQAGGSLRLSCAACGRIFGGNTMGWYRQAPGKQRELVAAITVRGGSTYYADSVKGRFTISRDNAKNTVYLQMNSLKPEDTAVYYCAARRRIFPPRFGYWGQGTQVTVSS", "polyreactivity (PSR sort gate)": "high polyreactivity"}
{"sequence": "QVQLVESGGGLVQAGGSLRLSCAACGRTFQWYPMGGFRQAPGTERELVAAISWSGTSTYYADSVKGRFTISRDNAKHTVYLQMNSLKPEDTAVYYCNKPCDVWDHDYDYWGQGTQVTVST", "polyreactivity (PSR sort gate)": "low polyreactivity"}
{"sequence": "QVQLVESGGGLVQAGGSLRLSCAACGRTFVSYAMGWYRQAPGKERELVAAITNAGSTYYADSVKGRFTISRDNAKNTVYLQMNSLKPEDTAVYYCAATYWDYWGYGYDYWGQGTQVTVSS", "polyreactivity (PSR sort gate)": "high polyreactivity"}
{"sequence": "QVQLVESGGGLVQAGGSLRLSCAACGSIFLSNSMGWYRQAPGKERELVADIDWTGGDTYYADSVKGRFTISRDNAMNTVYLQMNSLKPEDTAFYYCAADYGYRNLLTEYGYWVQGTQVTVSS", "polyreactivity (PSR sort gate)": "low polyreactivity"}
{"sequence": "QVQLVESGGGLVQAGGSLRLSCAACGSIFPGYAMGWYRQAPGKERELVATIRWSSGSRTNYADSVKGRFTISRDNAKNTVYLQMNSLKPEDTAVYYCAAGSRRYKYDYWGQGTQVTVSS", "polyreactivity (PSR sort gate)": "high polyreactivity"}
{"sequence": "QVQLVESGGGLVQAGGSLRLSCAACGSTFDVNARGWYRQAPGKERELVAAISWSDDDTYYADSVKGRFTISRDNAKNTDYLQKHSLKPEDTAVYYCAADGRYGWYYGVYNGEDYWGQGTQVTVSS", "polyreactivity (PSR sort gate)": "high polyreactivity"}
{"sequence": "QVQLVESGGGLVQAGGSLRLSCAACGSTFGSYAMGWYRQAPGKERELVADITSGGSTYYADSVKGRFTISRDNAKNTVYLQMNSLKPEDTAVYYCAVEGWWDDYKSGAGEFNYWGQGTQVTVSS", "polyreactivity (PSR sort gate)": "low polyreactivity"}
{"sequence": "QVQLVESGGGLVQAGGSLRLSCAACGSTFPYNAMGWYRQAPGKERELVAAISGNGDSTFYADSVKGRFTISRDNAKNTVYLQMNSLKPEDTAVYYCAAEQYYGYYFYGYWGQGTQVTVSS", "polyreactivity (PSR sort gate)": "high polyreactivity"}
{"sequence": "QVQLVESGGGLVQAGGSLRLSCAACGSTFWYYVMGWYRQAPGKERELVAAISTRGDSTYYADSVKGRFTISRDNAKNTVYLQMNSLKAEDTAVYYCAKSRQSSGRVRFDYWGQGTQVTVSS", "polyreactivity (PSR sort gate)": "low polyreactivity"}
{"sequence": "QVQLVESGGGLVQAGGSLRLSCAAFGFTFNAYALGWYRQAPGKERELVAGITSSGGGTYYADSVKGRFTISRDNAKNTVYLEMNSLKPEDTAVYYCNTYSYLFSRYGYWGQGTQVTVSS", "polyreactivity (PSR sort gate)": "high polyreactivity"}
{"sequence": "QVQLVESGGGLVQAGGSLRLSCAAFGPIFQYYAMGSYRQAPGKERELVAAITRSGGSTYYADSVKGRFTISRDNAKNTVYLQMNSLKPEDTAVYYCAAYSRYTVREGYDYWGQGTQVTVSS", "polyreactivity (PSR sort gate)": "high polyreactivity"}
{"sequence": "QVQLVESGGGLVQAGGSLRLSCAAPGSTFVAYAMGWYRQAPGKERELVAAISSVGRTNYADSVKGRFTISRDNAKNTVYLQMNSLKPEDTAVYYCAAVYVDRRKRSYYWGQGTQVTVSS", "polyreactivity (PSR sort gate)": "high polyreactivity"}
{"sequence": "QVQLVESGGGLVQAGGSLRLSCAASAGTFWNAMGWYRQAPGKERELVATITSGSSTNYADSVKGRFTISRDNAKNTVYLQMNSLKPEDTAVYYCNARTIPWPYIVSYDYWGQGTQVTVSS", "polyreactivity (PSR sort gate)": "high polyreactivity"}
{"sequence": "QVQLVESGGGLVQAGGSLRLSCAASALTLRTYAMGWYRQAPGKERELVAAITTGGSTYYADSVKGRFTISRDNAKNTVYLQLNSLKPEDTAVYYCAADFIRYINRLLYDYWGQGTQVTVSS", "polyreactivity (PSR sort gate)": "low polyreactivity"}
{"sequence": "QVQLVESGGGLVQAGGSLRLSCAASARIFDTYAMGWYRQAPGKETELVDSISIDGSTYYADSVKGRFTISRDNAKNTVYLQMNSLKPEDTAVYYCNADGRYYTVRFEYWGQGTQVTVSS", "polyreactivity (PSR sort gate)": "low polyreactivity"}
{"sequence": "QVQLVESGGGLVQAGGSLRLSCAASARIFPVYAMGWYRQAPGKERELVAAISRSAGRTYYADSVKGRFTISRDNAKNTVYLQMNRLKPEDTAVYFCAAQSPYGYDYWGQGTQVTVSS", "polyreactivity (PSR sort gate)": "low polyreactivity"}
{"sequence": "QVQLVESGGGLVQAGGSLRLSCAASARIYTTYAMGWYRQAPGKERELVASITTTDTRTYADSVKGRFTISRDNAKNTVYLQMNSLKPEDTAVYYCAKDRLNKGRYYRGASDYWGLGTQVTVSS", "polyreactivity (PSR sort gate)": "low polyreactivity"}
{"sequence": "QVQLVESGGGLVQAGGSLRLSCAASARTFKPYAMGWYRQAPGKERELVAAISTRGGSTYYADSVKGRFTISRDNAKNTVYLQMNSLKPEDTAVYYCAATQPCRDYDYWGQGTQVTVSS", "polyreactivity (PSR sort gate)": "low polyreactivity"}
{"sequence": "QVQLVESGGGLVQAGGSLRLSCAASARTFSYYTMGWSRQEPGKARELVARISNRGTNTYYADSVKGRFTISRDNAKNTVYLQMNSLKPEDTAVYYFAKYYYSSIVGYDSWGQGTQLTVSS", "polyreactivity (PSR sort gate)": "low polyreactivity"}
{"sequence": "QVQLVESGGGLVQAGGSLRLSCAASARTYGNYAMGWYREAPGKERELVADITRRGGSTSYADSVKGRFTISRDNAKNTVYLQMNSLKPEDTAVYYCNKRTTPYYAQGISRLEYDYWGQGTQVTVSS", "polyreactivity (PSR sort gate)": "low polyreactivity"}
{"sequence": "QVQLVESGGGLVQAGGSLRLSCAASASIFAYKAIGWYRQAPGKESELVASITNGGSTYYADSVKGRFTISRDNAKNTVYLQMNSLKQEDTAVYYCNTDFDVYSVGYDGYWGQGTQVTVSS", "polyreactivity (PSR sort gate)": "low polyreactivity"}
{"sequence": "QVQLVESGGGLVQAGGSLRLSCAASASIFILNAMGWYRPAPGKERELVAAISWSGGRTNYADSVKGRFTISRDTAKNTVYLHMNSLKPEETAVYFCAARVTPYRGFYYWGQGTQVTVSS", "polyreactivity (PSR sort gate)": "high polyreactivity"}
{"sequence": "QVQLVESGGGLVQAGGSLRLSCAASASIFNYYAMGRYRQAPGKERELVAAITSGGSTYYADSVKGRFSISRDNAKNTVYLQMNSVKPEDTAVYYCNKAFPYIYDYWGQGTQVTVSS", "polyreactivity (PSR sort gate)": "low polyreactivity"}
{"sequence": "QVQLVESGGGLVQAGGSLRLSCAASASILVRYAMVCYRQAPGKKREMVSAITATSGGTYYADSVKGRFTFSLDNAKNTVYLQMYSLKPEDTAVYYCNADGGSGAYLDLTITDYDYWGQGTQVTVSS", "polyreactivity (PSR sort gate)": "low polyreactivity"}
